Laboratory results reported in patent US6645501B2, “Anti-pathogen system and methods of use thereof” (Washington University, priority 1997, dated 2003).

Experiments:
Format in all cases: cell-based
Jurkat T cells = experiment: Co-transduction of uninfected Jurkat T cells with TAT-CPP32 and TAT-Protease, survival by trypan-blue exclusionary dye microscopy; conditions: 50-100 nM, uninfected Jurkat T cells, 18 hr post-addition
Method: To test for activation of the TAT-CPP32 by TAT-Protease, 2×10^6 Jurkat T cells were placed in 2 ml of culture (RPMI media). To these cells, various combinations of control and experimental transducible proteins were added in 50-100 nM ranges, as follows:
The cells were assayed for survival at 18 hr post-addition by trypan-blue exclusionary dye microscopy. […] Thus, activation of TAT-CPP32 requires the presence of HIV protease.

[1] = tested on: Jurkat T-cells infected by HIV (strain NLHX); experiment: Killing of HIV-infected Jurkat T-cells, trypan blue exclusion and microscopy; conditions: about 18 hours post-transduction
Method: About 5×10^6 Jurkat T-cells were infected by HIV (strain NLHX; about 1×10^5 to 1×10^6 infectious virus per ml). The cells were propagated in RPMI media. Approximately 4 to 7 days after the infection, the media was removed from the plates and about 35 to 45 nanomoler of the TAT-CPP32 fusion protein was added to the cells. The cells were incubated with the fusion proteins for about 30 minutes to allow transduction into the cells. […] Subsequently, media was added back to the plates and after about 18 hours post-transduction, the cells were examined for cell killing using conventional trypan blue exclusion and microscopy.
Briefly, cells were infected and transduced as described in Example 6 above. Following the transduction, about 1 μg/ml Ritonavir was added to the cell media and allowed to incubate with the cells for about 18 hours. The cells were then assayed for cell killing by conventional trypan blue exclusion and microscopy. […]

[2] = tested on: HIV-infected (NLHX strain) and uninfected Jurkat T-cells; experiment: FACS analysis of transduction and retention of fusion proteins in HIV-infected and uninfected Jurkat T-cells; conditions: about 35 to 45 nanomoler, about 30 minutes, HIV (NLHX) infected Jurkat culture
Method: To see if p16 fusion proteins could remain in the cell cytosol of the HIV infected cells, the TAT-HIV1,2 p16 fusion proteins produced in Example 3 were purified and labeled with FITC as described above. About 35 to 45 nanomoler of the labeled fusion protein was then added to HIV-infected (NLHX strain) and uninfected Jurkat T-cells in accordance with Example 6 below. The transduced Jurkat T-cells were then analyzed by FACS. All (100%) of cells in a mixed population of HIV infected/uninfected cells were transduced with the p16 protein at 1, 2, 4, 8 and 16 hours post-addition of the FITC conjugated fusion protein. However, when the cells were washed in fresh media and the PTD has driven out of the cells due to the concentration gradient (now high inside and 0 outside), the infected cells retained the cleaved substrate (the p16 portion) but uninfected controls lost all of the transduced protein (it transduced out) as determined by the continued presence of FITC-labeled p16 as analyzed by FACS.
About 5×10^6 Jurkat T-cells were infected by HIV (strain NLHX; about 1×10^5 to 1×10^6 infectious virus per ml). The cells were propagated in RPMI media. Approximately 4 to 7 days after the infection, the media was removed from the plates and about 35 to 45 nanomoler of the TAT-CPP32 fusion protein was added to the cells. […]

B1: TAT-CPP32: HIS-TAT-PTD-HIV2-large subunit of CPP32-HIV1-small subunit of CPP32 fusion protein (protein)
chain: GRKKRRQRRRGYPYDVPDYACTERQANFLGKIWPGISLDNSYKMDYPEMGLCIIINNKNFHKSTGMTSRSGTDVDAANLRETFRNLKYEVRNKNDLTREEIVELMRDVSKEDHSKRSSFVCVLLSHGEEGIIFGTNGPVDLKKITNFFRGDRCRSLTGKPKLFIIQACRGTELDCGIETSQVSQNYPIVQNLQGVDDDMACHKIPVEADFLYAYSTAPGYYSWRNSKDGSWFIQSLCAMLKQYADKLEFMHILTRVNRKVATEFESFSFDATFHAKKQIPCIVSMLTKELYFYH
modifications: left off: small tags and cut ends
notes: HIS-TAT-PTD-HIV2-large subunit of CPP32-HIV1-small subunit of CPP32 fusion protein
cytotoxicity when added alone (Jurkat T cells): minimal cytotoxicity | loss of viable cells when added plus TAT-Protease (Jurkat T cells): substantial loss of viable cells | killing of HIV-infected cells ([1]; about 35 to 45 nanomoler): about all of the infected cells were killed | killing of uninfected cells in the population [1]: does not kill | cells transduced by the fusion protein [2]: about 100%
